Reference: patent publication US20220204644A1 (MAB DISCOVERY, published 2022)

Columns and labels:
[1] = target: T1, HER2 sub-domain I, recombinant (human, UniProt P04626 23-217, limits assumed); assay: ELISA, coated HER2 domain
T1 construct: domain: sub-domain I; also called HER2 domain I
Protocol: (§1) Recombinant Her2 domains (full length ECD purchased from Biozol, ECD domains produced at Mab Discovery), were coated on a 384-well Nunc™ MaxiSorp™ plate at optimized concentrations ([…]) in PBS for one hour at room temperature. After washing three times with wash buffer (PBS, 0.1% Tween), plates were blocked with PBS, 2% BSA, 0.05% Tween for one hour at room temperature. Plates were washed again three time with wash buffer and antibodies at a concentration of 10 μg/ml in PBS, 0.5% BSA, 0.05% Tween were incubated for one hour at room temperature. After 3 washes in wash buffer, wells were incubated with 12.5 μl of a 1:5000 dilution of anti-human peroxidase-linked, species specific F(ab)2 Fragment from goat (AbD Serotec) in ELISA buffer for one hour at room temperature. Wells were washed six times with wash buffer and 15 μl/well TMB substrate solution (Invitrogen) were added. After 10 minutes at room temperature 15 μl Stop solution (1M HCl) were added per well and absorbance at 450 and 620 nm wavelength was measured using a Tecan M1000 microplate reader.

[2] = target: T2, HER2 full-length extracellular domain (ECD), recombinant (human, UniProt P04626 23-652); assay: ELISA, coated HER2 ECD, antibody at 10 µg/ml
T2 construct: extracellular domain; also called full length ECD; HER2 full-length ECD
Protocol: as §1

B1: B100 anti-HER2 monoclonal antibody (antibody, V domains shown)
VH: QSVEESGGRLVTPGTPLTLTCTVSGFSLSNYGVSWVRQAPGKGLEYIGIISGSGFTYYASWAKGRFTISKTSTTVDLKITSPTTKDTATYFCARGVVPGYNAGGLWGQGTLVTVSS
VL: DIVMTQTPASVSEPVGGTVTIKCQASQGISTALAWYQQKPGQRPKLLIYSASTLASGVSSRFKGSGSGTQFTLTISDLECADAATYYCQCTAAGSVSVGAFGGGTEVVVN
notes: It was detected in the ELISA with an anti-human F(ab)2 conjugate; also called B100 antibody
binding result [1]: no binding (tested: 10 µg/ml) | binding result [2]: binds
